Assay [1] addresses T1, recombinant human interleukin 2 receptor β (IL-2Rβ; CD122) (human, UniProt P14784 27-240).
T1 construct: Recombinant chain immobilised on the SPR chip and used as antigen in the ELISAs; also called human IL-2Rβ
T1 sequence (looked up): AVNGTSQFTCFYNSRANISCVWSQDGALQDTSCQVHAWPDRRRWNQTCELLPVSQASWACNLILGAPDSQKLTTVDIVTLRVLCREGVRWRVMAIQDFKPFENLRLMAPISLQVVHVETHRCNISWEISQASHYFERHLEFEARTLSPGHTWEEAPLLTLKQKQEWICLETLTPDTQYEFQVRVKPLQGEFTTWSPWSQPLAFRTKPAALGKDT
Put plainly: SPR, recombinant receptor chain immobilised on the chip, antibody flowed over.

Assay [2] addresses T2, recombinant human common γ chain (γc; CD132) (human, UniProt P31785 23-262).
T2 construct: Recombinant chain immobilised on the SPR chip and used as antigen in the ELISAs; also called IL-2Rγc; IL-2Rγ
T2 sequence (looked up): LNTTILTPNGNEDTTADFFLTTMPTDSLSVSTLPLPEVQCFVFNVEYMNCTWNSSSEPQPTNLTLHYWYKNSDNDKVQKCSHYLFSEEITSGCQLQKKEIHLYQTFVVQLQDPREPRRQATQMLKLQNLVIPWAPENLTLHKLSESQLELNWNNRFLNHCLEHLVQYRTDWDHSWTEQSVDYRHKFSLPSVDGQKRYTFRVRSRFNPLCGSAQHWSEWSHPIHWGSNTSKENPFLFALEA
The assay is described as above.

B1: bispecific anti-IL-2Rβ/γc antibody P2D12/P1A3 (bispecific antibody)
chain 1: HVQLVETGGGLVQPGGSLRLSCAASGFTFSSYAMSWVRQAPGKGLEWVSAISGSGGSTYYADSVKGRFTISRDNSKNTLYLQMNSLRAEDTAVYYCARDLGDYWGQGTLVTVSSGGGGSGGGGSGGGGSDIQLTQSPSSLSASVGDRVTITCQASQDIGNYLNWYQLKPGKAPKLLIYDASNLETGVPSRFSGSGSGTDFTFTISSLQPEDIATYYCLQLYDYPLTFGGGTKVEIK
chain 2: not shown
What is called Kd is the free concentration of one partner at which half of the binding sites on the other are occupied at equilibrium, for simple one-to-one binding. For B1, the dissociation constant Kd amounted to 181 nM in assay [1] and 78.7 nM in assay [2].
